Source: publication PMC4888784

Molecular target: PIN1 (UniProt Q13526)
Experiment: His-tagged peptide binding to GST-PIN1
Settings: reference: nonphosphorylated S203/P204 peptide; sites S203

Substance: PGK1 (phosphoglycerate kinase 1) oligopeptide containing S203/P204, borders not given (from UniProt P00558) pS203/P204 peptide
- binding against the reference: stronger
